{
  "source": "the DeepSol protein solubility set",
  "data": [
    {"assay": "soluble on expression in E. coli; label from the status in PepcDB or PDB records", "values": [
      {"sequence": "MFQISELANYRLCKRCSGRIFAYHYHGISNLERGEYLQFAIGCETGNPDFSFVDSKNCDICHGIFDRFDDIYDLVAKKVGDAQYSTFLVGSVFPQDTIRMEEDIQKKFGSSGESIKKEFNREFGKYFSARTGKEYSQDNPDLTILVNAEYLFVDVKIRSIYIYGKYRKFRRDMPQTRWIHRPNGDTVESVIGSVFTRYAGGTNYYLHGSGREDVDVRMLGNGREFVLEVENPRYREFELDPVVKEINTSGKGVEIFDVKFSSHDAVSEVKLEKHRKVYDALVVSDRPIDESRLLEACINLTGKNIYQRTPLRVAQRRSDLVRTRRIDQVDLVGVSANEAEILISAEAGTYIKELVNGDGGRTRPSLSEMYGSPLNVKELDVIKICRGEDLEHHHHHH", "soluble on expression in E. coli": "soluble"},
      {"sequence": "MAQTLAQTKQISQSHTFDVSQSHHKTPDDTNSHSVIYSTQNLDLWYGENHALQNINLDIYENQITAIIGPSGCGKSTYIKTLNRMVELVPSVKTAGKILYRDQDIFDQKYSKEQLRTNVGMVFQQPNPFPKSIYDNITYGPKIHGIKNKKVLDEIVEKSLRGAAIWDELKDRLHTNAYSLSGGQQQRVCIARCLAIEPEVILMDEPTSALDPISTLRVEELVQELKEKYTIIMVTHNMQQAARVSDKTAFFLNGYVNEYDDTDKIFSNPSNKKTEDYISGRFG", "soluble on expression in E. coli": "not soluble"},
      {"sequence": "MGSDKIHHHHHHMKTSVKFETIFPLTTAPLIQCITNEITCESMANALLYIDAKPIMADDPREFPQMFQQTSALVLNLGHLSQEREQSLLAASDYARQVNKLTVVDLVGYGASDIRNEVGEKLVHNQPTVVKGNLSEMRTFCQLVSHGRGVDGSPLDQSEEAIEELIQALRQQTQKFPQTVFLATGIQDVLVSQEQVIVLQNGVPELDCFTGTGDLVGALVAALLGEGNAPMTAAVAAVSYFNLCGEKAKTKSQGLADFRQNTLNQLSLLMKEKDWFEAVKGRVL", "soluble on expression in E. coli": "not soluble"},
      {"sequence": "MCMEKFYKVGTIVNTQGLQGEVRVMPSTDFAQERFSKGSVLALFDDKDNYIQDLKVKSGRPQKNFYVVKFEGFYHINDVEKYKGYIVKIAEENQEDLDDGEFYYHEIIGSDVYENDILIGQISEILQPGANDVWVVKRKGKRDLLLPYIPPVILNVDVNQHRVDVSIMEGLDDLEHHHHHH", "soluble on expression in E. coli": "soluble"},
      {"sequence": "MDNYQEITRYLDNAREILSTKANKEGQFYKDIKYVQMASGTAYNAALMIADEYLRKKEGAKFTKPNSIDEYRVRLNKHNKTLLAYLNRAYDMLHLAGYYHGTPSVGTIKQGMEAAQKMLALIEH", "soluble on expression in E. coli": "soluble"},
      {"sequence": "MGSDKIHHHHHHMITVNDMSMQFSDRKLYSDVNLKFTPGNCYGIIGANGAGKSTFLKILEGKLQPTSGNVSISPNERMSSLNQDHYAFEEFTVMNTVIQGYKKLYEVMQAKDALYAKADFTEEDGMKAANLEAEFAEMDGWNAEAEASQLLQQLGIDESLHDSKMSELTEGQRIKVLLGQALFGKPDILILDEPTNGLDPKSISWLEDFLADFPNTVIVVSHDRHFLNSVCTMMCDVDFGKIELFVGNYDFWMESSALAKRLRENANAKKEEQIKELQEFVARFSANASKSKQATSRKKQLDKITLDDIKPSSRKYPFIRFEPARELGNDLVRVDKVSKSIDGVKILDNITFTVRPGEKAAILSQNDLATTVLMQILAGEMEPDSGSVTWGQTTERSYIPRDINSYFEDDRFDILEWLRQYAPKEESDNTFLRGFLGKMLFSGEDVLKNVTKLSGGEKVRCMISKTMLSKANVLILDDPTNHLDLESITALNEGLTSYKSSIIMTSHDHEFIQTIADHIIEVSDKGSVDRAETTYDEFLNHDAIQEQVSKLY", "soluble on expression in E. coli": "not soluble"},
      {"sequence": "MGSSHHHHHHSSGLVPRGSHMKPVLTVYTYDSFAADWGPGPVVKKAFEADCNCELKLVALEDGVSLLNRLRMEGKNSKADVVLGLDNNLLDAASKTGLFAKSGVAADAVNVPGGWNNDTFVPFDYGYFAFVYDKNKLKNPPQSLKELVESDQNWRVIYQDPRTSTPGLGLLLWMQKVYGDDAPQAWQKLAKKTVTVTKGWSEAYGLFLKGESDLVLSYTTSPAYHILEEKKDNYAAANFSEGHYLQVEVAARTAASKQPELAQKFLQFMVSPAFQNAIPTGNWMYPVANVTLPAGFEKLTKPATTLEFTPAEVAAQRQAWISEWQRAVSR", "soluble on expression in E. coli": "soluble"},
      {"sequence": "MIKYARQIYSTKQEVIMATYFSDNLTADQQNQVQQIIQQFQHPTLQKDLIVLNTLKKVEKGGDTLRIELQLPFAWNSGAEQLKQAVSDALLKATDCKLIKWAVAYQIATLKRANNQPAVKGVKNIIAVSSGKGGVGKSSVSVNLALALQAQGARVGILDADIYGPSIPHMLGAADQRPTSPDNQHITPIKAHGLSANSIGFLMNEDSATIWRGPMASSALSQLLNETLWDSLDYLVIDMPPGTGDIQLTLSQQIPVTGAVVVTTPQDIALLDAVKGISMFERVSVPVLGIVENMSMHICSECGHHEAIFGTGGAEKMAEKYNVKVLAQLPLHIRIREDLDAGNPTVVRVPENEISQAFLQLAEKVSTELYWQGSVIPSEILFKEVKLEHHHHHH", "soluble on expression in E. coli": "soluble"},
      {"sequence": "MTFLKEYVIVSGASGFIGKHLLEALKKSGISVVAITRDVIKNNSNALANVRWCSWDNIELLVEELSIDSALIGIIHLATEYGHKTSSLINIEDANVIKPLKLLDLAIKYRADIFLNTDSFFAKKDFNYQHMRPYIITKRHFDEIGHYYANMHDISFVNMRLEHVYGPGDGENKFIPYIIDCLNKKQSCVKCTTGEQIRDFIFVDDVVNAYLTILENRKEVPSYTEYQVGTGAGVSLKDFLVYLQNTMMPGSSSIFEFGAIEQRDNEIMFSVANNKNLKAMGWKPNFDYKKGIEELLKRL", "soluble on expression in E. coli": "not soluble"},
      {"sequence": "MTDTNSQWIEMNLQRQRKMLEDKQKQKRHQSAGSVRTTSTAMSMNSMKDYPTFDNSLPFSISDNSSVSVSMNTPLIPTQDPIAQPRMQSMPRQQPQQVQESLISIGDYPDNDINAKLSKVNLTSCVVSDDEDEDKRSYADSPWNTDVVADRIPSEVLPDYNFIKNNLAKFVEDPAVEHCLYKCSITRQKSGVDKGMFPTYFLHLEEFDTDKRQKIFLLAARKRKKSTTANYLLSTDPTNLSREGEGYCAKVRSNALGTQFTVYDSGQNPKKTTNHAAIRQELAAVIYETNVLGFKGPRKMTIVMPGIEPPTENRPAVRCPVRPIQDKHTLLERYRLNDLDSLKILSNKSPQWNDETQSYVLNFHGRVTQASVKNFQIIHQSSPEYIVMQFGRISDDEFTMDFRYPLSAVQAFGIAMTSFHGKLACE", "soluble on expression in E. coli": "not soluble"},
      {"sequence": "MRGSHHHHHHGSVTTKRYTLPPLPYAYNALEPYISAEIMQLHHQKHHQGYVNGANAALEKLEKFRKGEAQIDIRAVLRDLSFHLNGHILHSIFWPNMAPPGKGGGKPGGKIADLINKFFGSFEKFKEEFSQAAKNVEGVGWAILVYEPLEEQLLILQIEKHNLMHAADAQVLLALDVWEHAYYLQYKNDRGSYVDNWWNVVNWDDVERRLQKALNGQIALKL", "soluble on expression in E. coli": "soluble"},
      {"sequence": "MELYLIRHGIAEAQKTGIKDEERELTQEGKQKTEKVAYRLVKLGRQFDLIVTSPLIRARQTAEILLASGLSCQLEESNHLAPNGNIFNWLDYWLKPKNFPENAQIAIVGHEPCLSNWTEILLWGEAKDSLVLKKAGMIGLKLPEIGSPVGRSQMFWLTPPRYLLLEHHHHHH", "soluble on expression in E. coli": "soluble"},
      {"sequence": "MVAIIDASITRFGKRKESLLELAGEVALPLIGKYEIDFVVVSNSYSGEFNSLSGINNLITTYLSVDKVPSIRVDNTSGSGGSAILVAKSLLDSKITKTVLVLGVEKMSEKNTKQVTSVIASLLSPEEKIVGLTLPSLAGLMTKEYMRRYNASREAFALVAVKNHYNGSLNPFAHIQKVVSLEEVLNSPIIADPLTLYEFTPISDGASAIVMVRDEDAYSFTKKPVFI", "soluble on expression in E. coli": "not soluble"},
      {"sequence": "MSLAAHWEIAVKNSSRSAVDPFIVMDVMEAARRAEEAGRRIIHMEVGQPGTGAPRGAVEALAKSLETDALGYTVALGLPALRQRIARLYGEWYGVDLDPGRVVITPGSSGGFLLAFTALFDSGDRVGIGAPGYPSYRQILRALGLVPVDLPTAPENRLQPVPADFAGLDLAGLMVASPANPTGTMLDHAAMGALIEAAQAQGASFISDEIYHGIEYEAKAVTALELTDECYVINSFSKYFSMTGWRVGWMVVPEDQVRVVERIAQNMFICAPHASQVAALAALDCDAELQANLDVYKANRKLMLERLPKAGFTRIAPPDGAFYVYADVSDLTDDSRAFAAEILEKAGVAVTPGLDFDPERGAGTLRFSYARATADIEEGLDRLEAFMQARGEGHHHHHH", "soluble on expression in E. coli": "soluble"},
      {"sequence": "AHHHHHHGSLPKNYDPNEIEPKWQKYWLEEKIYKYKLEPDKPSYAIDTPPPFTSGTLHLGHVLSHTWIDIIARYKRMRGYNVLFPQGFDNHGLPTELKVEKEFGISKDQPEEFLKKCIEWTWQAIEKMRAQFIRIGYSADWDLEYHTMDDWYKAAVQKSLLDFYKKGLIYREEHPVYWCPRCRTSLAKAEVGYVEEEGYLYYIKLPLADGSGYIPIATTRPELMPACVAVFVHPDDERYKHLVGKKVKLPIYEREVPILADEDVDPNFGTGAVYNCTYGDEQDIVWQKRYNLPVIIAINEDGTMNENAGPYAGLKIEEARKKIAEDLEKMGLLYKKEKITHRVLRHTERSSCMAPIELLPKKQWFIKVREFTDDIVEVAKKINWYPEDMFLRLKDWAESMDWDWVISRQRVFGTPIPFWICKNGHIIPAREEDLPVDPRFDKPPVEKCPVCGAEIEPVTDVLDCWVDSSITPLIITKWHEAIKGDEEAKKWFEHNFPTALRPQGTDIIRTWAFYTIFRTYMLTGEKPWNDIVINGMVAGPDGRKMSKSYGNVVSPEEVIPKYGADALRLWTALAPPGEDHPFKWEIVDYNFRFLQKLWNIYRFAERHIKDFDYEKYKHIELEPLDRWILSRLHRIIKFATEELEKYRFNLITRELMTFIWHEVADDYIEMIKHRLYGEDEESKLKAKVALYELLYNIMLLLAPFVPHITEELYHHIFKEKIGEKSVHLLQWPEYREDRIDEEAEKIGELAREIVSAMRKYKNSHGMPLNAKLKHVAIYATDSYEMLKVIEKDIAGTMNIERLEIVKGEPQLEEKVVEIKPIYKRIGPRYGKLVPKIVKHLQENAEEIGRRIKEEGKVEFEVEGQKVVLEKEDIEIKKAVFSEGEEVETAVVRDATILFF", "soluble on expression in E. coli": "not soluble"},
      {"sequence": "MAPENHDGEKHFAEIVKDFGETSMNDNGLDTGEQAKAFAWGKVRDALSQQVNQHVESWLSPWGNASVDVKVDNEGHFTGSRGSWFVPLQDNDRYLTWSQLGLTQQDNGLVSNVGVGQRWARGNWLVGYNTFYDNLQDENLQRAGFGAEAWGEYLRLSANFYQPFAAWHEQTATQEQRMARGYDLTARMRMPFYQHLNTSVSLEQYFGDRVDLFNSGTGYHNPVALSLGLNYTPVPLVTVTAQHKQGESGENQNNLGLNLNYRFGVPLKKQLSAGEVAESQSLRGSRYDNPQRNNLPTLEYRQRKTLTVFLATPPWDLKPGETVPLKLQIRSRYGIRQLIWQGDTQILSLTPGAQANSAEGWTLIMPDWQNGEGASNHWRLSVVVEDNQGQRVSSNEITLTLVEPFDALSNDELRWEP", "soluble on expression in E. coli": "not soluble"},
      {"sequence": "MGSDKIHHHHHHMHAVSHLASKDAQSNASPQVALIAEGGGQRGIFTAGVLDAWLDGGFDPFDLFIGTSAGSQNLSSFLARQKGYAKRLIRGLSRHKRFYRLGRGLVGGNVVDLDWYFEQTRQGMFKLDLNAATASLGHRQLLITTTNASDRKGYFLSPSSKSQWRELLKASSALPFLYKQGVKLTPWLNDNACNSDKACNNGAANHGGSHHSAALSEAIDSDFYLDGGLAAPLPVREAYRRGARKIVVIRTVSEDFQAQSAWVHKLKSWICVSGFCPKTIDYLVQHEQAYQDELDFIANPPEDVEIVQIFAAENLQSKLLGSTDADLRHDYHAGMNAGKQFLTQDPMALTQMNVHFQTQVQTNAHTQTHIQALSQIKPFSALSA", "soluble on expression in E. coli": "not soluble"}
    ]}
  ]
}
